In patent EP4676945A2 one finds fold increase of cell adhesion to fibrin against the control-CAR construct data, which are given here for one molecule.

In the test the target is fibrin. Put plainly: cell adhesion assay: HEK293 cells transfected with the CAR, 30 minutes on fibrin-coated plates, washed with PBS, adhered cells counted by Hoechst stain; reference control-CAR.

B1: fibrin-specific FIB2-CAR (PMC 1946, FIB2scfvCAR), expressed on transfected/transduced HEK293 cells (receptor)
chain: DIQLTQSPSSLSASVGDRVTITCRASQNIGVNLNWYQQRPGKGPKLLVSSTFSLQSGVPSRFSASGAGTNFTLTISSLQPEDYVTYYCQQSYSSPFTFGPGTKVDIKGGGGSGGGGSGGGGSEVQLVESGGGAVQPGRSLRLSCAASGVSFSNIGMHWVRQAPGKGLEWVALISSDGRHTHYADSVKGRFTISRDNSENTLYLQINGLRADDTAVYYCAKGLDTRARYMGKFYTFDYWGQGTLVTVSSASAIEVMYPPPYLDNEKSNGTIIHVKGKHLCPSPLFPGPSKPFWVLVVVGGVLACYSLLVTVAFIIFWVKRGRKKLLYIFKQPFMRPVQTTQEEDGCSCRFPEEEEGGCELRVKFSRSADAPAYQQGQNQLYNELNLGRREEYDVLDKRRGRDPEMGGKPRRKNPQEGLYNELQKDKMAEAYSEIGMKGERRRGKGHDGLYQGLSTATKDTYDALHMQALPPR
B1: the fold increase of cell adhesion to fibrin against the control-CAR construct was determined as 9.8 fold.
